From paper doi:10.1101/2020.10.05.326918 (bioRxiv, 2020)
Values belong to the binder of their own block, whether it stands above or below them.

B4: MED24 (natural protein, Mus musculus (endogenous in CH12 cells), UniProt Q99K74 1-987, looked up)
chain: MKVVNLKQAILQAWKERWSDYQWAINMKKFFPKGATWDILNLAEALLEQAMIGPSPNPLILSYLKYAISSQMVSCSSVLTAISKFDDFSRDLCVQALLDIMDMFCDRLSCHGKAEECIGLCRALLSALHWLLRCTAASAERLQEGLEAGTPAPGEKQLALCLQCLEKTLSSTKNRALLHIAKLEEASSWTAIEHSLLKLGEILANLSNPQLRSQAERCGTLIRSIPSMLSVHSEQLHKTGFPTIHALILLEGTMNLTGEMQPLVEQLMMVKRMQHIPTPLFVLEIWKACFVGLIESPEGTQELKWTAFTYLKIPQVLVKLKKYFHGEKDFTEDVNCAFEFLLKLTPLLDKADQRCNCDCTNFLLQECNKQGLLSEVNFASLVGKRTADRDPQLKSSENANIQPNPGLILRAEPTVTNILKTMDADHSKSPEGLLGVLGHMLSGKSLDLLLAAAAATGKLKSFARKFINLNEFTTHGSGESTKTASVRALLFDISFLMLCHVAQTYGSEVILSESSSGEEVPFFETWMQTCMPEEGKILNPDHPCFRPDSTKVESLVALLNNSSEMKLVQMKWHEACLSISAAILEILNAWENGVLAFESIQKITDNIKGKVCSLAVCAVAWLVAHVRMLGLDEREKSLQMIRQLAGPLYSENTLQFYNERVVIMNSILEHMCADVLQQTATQIKFPSTGVDTMPYWNLLPPKRPIKEVLTDIFAKVLEKGWVDSRSIHILDTLLHMGGVYWFCNNLIKELLKETRKEHTLRAVQLLYSIFCLDMQQVTLVLLGHILPGLLTDSSKWHSLMDPPGTALAKLAVWCALSSYSSHKGQASSRQKKRHREDIEDYVSLFPVEDMQPSKLMRLLSSSDDDANILSSPTDRSMNSSLSASQLHTVNMRDPLNRVLANLFLLISSILGSRTAGPHTQFVQWFMEECVGCLEQDSRGSILQFMPFTTVSELVKVSAMSSPKVVLAITDLSLPLGRQVAAKAIAAL

Columns and labels:
Assay in all cases: cryo-EM structure
MED1 = MED1 (Mus musculus (endogenous in CH12 cells), UniProt Q925J9 1-1575)
MED24 = target: B4
MED23 = target: T1, MED23 (Mus musculus (endogenous in CH12 cells), UniProt Q80YQ2 1-1367)
T1 sequence (looked up): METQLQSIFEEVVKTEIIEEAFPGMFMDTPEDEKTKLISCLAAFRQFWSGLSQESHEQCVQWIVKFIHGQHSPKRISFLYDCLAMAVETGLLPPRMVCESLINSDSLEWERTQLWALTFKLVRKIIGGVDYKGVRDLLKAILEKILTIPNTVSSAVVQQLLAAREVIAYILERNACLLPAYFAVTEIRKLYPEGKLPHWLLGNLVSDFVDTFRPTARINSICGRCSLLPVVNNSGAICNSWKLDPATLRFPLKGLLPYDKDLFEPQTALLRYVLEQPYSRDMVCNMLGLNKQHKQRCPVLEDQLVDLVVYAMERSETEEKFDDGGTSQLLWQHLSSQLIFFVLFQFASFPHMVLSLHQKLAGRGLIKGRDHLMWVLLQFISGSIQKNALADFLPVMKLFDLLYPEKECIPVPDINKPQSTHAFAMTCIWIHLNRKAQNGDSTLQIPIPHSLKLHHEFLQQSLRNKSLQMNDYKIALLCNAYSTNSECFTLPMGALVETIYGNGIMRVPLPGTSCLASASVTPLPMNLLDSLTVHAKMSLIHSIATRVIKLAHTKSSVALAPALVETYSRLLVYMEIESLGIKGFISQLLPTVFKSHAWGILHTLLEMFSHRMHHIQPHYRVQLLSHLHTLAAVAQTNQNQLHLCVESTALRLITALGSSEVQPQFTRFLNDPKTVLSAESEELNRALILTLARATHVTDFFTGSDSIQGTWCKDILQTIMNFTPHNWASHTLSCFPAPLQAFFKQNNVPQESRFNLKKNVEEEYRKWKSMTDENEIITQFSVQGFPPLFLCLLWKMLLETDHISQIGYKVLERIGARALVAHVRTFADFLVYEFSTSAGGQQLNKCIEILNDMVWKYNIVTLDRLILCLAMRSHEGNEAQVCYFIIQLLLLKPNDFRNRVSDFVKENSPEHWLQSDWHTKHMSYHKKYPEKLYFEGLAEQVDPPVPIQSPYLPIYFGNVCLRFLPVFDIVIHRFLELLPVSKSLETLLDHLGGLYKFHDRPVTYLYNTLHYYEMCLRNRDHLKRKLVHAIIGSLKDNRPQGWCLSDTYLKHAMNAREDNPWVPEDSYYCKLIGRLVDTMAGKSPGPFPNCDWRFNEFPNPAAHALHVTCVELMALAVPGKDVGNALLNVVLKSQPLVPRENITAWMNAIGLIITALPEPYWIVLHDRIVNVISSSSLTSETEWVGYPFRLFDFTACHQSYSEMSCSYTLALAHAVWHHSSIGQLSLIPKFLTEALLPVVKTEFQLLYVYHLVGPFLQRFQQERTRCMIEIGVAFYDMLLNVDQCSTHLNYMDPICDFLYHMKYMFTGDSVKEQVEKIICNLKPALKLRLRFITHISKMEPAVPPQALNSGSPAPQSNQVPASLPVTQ

MED27 = target: T2, MED27 (Mus musculus (endogenous in CH12 cells), UniProt Q9DB40 1-311)
T2 sequence (looked up): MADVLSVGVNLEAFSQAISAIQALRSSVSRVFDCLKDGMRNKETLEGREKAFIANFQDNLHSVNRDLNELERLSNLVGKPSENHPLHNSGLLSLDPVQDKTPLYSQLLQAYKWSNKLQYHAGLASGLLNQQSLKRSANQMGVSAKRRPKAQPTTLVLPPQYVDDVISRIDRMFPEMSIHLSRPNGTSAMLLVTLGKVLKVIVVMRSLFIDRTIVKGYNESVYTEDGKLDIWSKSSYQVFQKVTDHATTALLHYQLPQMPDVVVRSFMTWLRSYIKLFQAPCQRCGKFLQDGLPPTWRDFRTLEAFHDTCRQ

MED17 = target: T3, MED17 (Mus musculus (endogenous in CH12 cells), UniProt Q8VCD5 1-649)
T3 sequence (looked up): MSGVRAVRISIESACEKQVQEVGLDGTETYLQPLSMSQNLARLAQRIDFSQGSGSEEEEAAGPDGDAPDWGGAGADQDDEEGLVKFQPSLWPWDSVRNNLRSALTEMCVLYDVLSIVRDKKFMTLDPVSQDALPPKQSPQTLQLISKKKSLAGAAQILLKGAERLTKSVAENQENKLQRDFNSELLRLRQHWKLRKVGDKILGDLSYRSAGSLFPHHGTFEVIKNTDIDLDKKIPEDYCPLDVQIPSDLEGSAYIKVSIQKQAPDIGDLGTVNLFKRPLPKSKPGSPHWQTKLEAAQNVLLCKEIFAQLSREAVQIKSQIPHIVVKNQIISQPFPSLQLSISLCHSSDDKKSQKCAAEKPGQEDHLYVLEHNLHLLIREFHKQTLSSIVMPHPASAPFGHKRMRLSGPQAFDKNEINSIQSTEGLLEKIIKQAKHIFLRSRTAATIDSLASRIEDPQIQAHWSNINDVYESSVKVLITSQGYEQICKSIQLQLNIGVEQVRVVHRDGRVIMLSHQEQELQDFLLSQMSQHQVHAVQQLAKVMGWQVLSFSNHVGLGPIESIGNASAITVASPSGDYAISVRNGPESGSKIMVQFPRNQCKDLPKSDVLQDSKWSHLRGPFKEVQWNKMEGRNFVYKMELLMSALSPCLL

Chain of MED1 (Q925J9 whole entry): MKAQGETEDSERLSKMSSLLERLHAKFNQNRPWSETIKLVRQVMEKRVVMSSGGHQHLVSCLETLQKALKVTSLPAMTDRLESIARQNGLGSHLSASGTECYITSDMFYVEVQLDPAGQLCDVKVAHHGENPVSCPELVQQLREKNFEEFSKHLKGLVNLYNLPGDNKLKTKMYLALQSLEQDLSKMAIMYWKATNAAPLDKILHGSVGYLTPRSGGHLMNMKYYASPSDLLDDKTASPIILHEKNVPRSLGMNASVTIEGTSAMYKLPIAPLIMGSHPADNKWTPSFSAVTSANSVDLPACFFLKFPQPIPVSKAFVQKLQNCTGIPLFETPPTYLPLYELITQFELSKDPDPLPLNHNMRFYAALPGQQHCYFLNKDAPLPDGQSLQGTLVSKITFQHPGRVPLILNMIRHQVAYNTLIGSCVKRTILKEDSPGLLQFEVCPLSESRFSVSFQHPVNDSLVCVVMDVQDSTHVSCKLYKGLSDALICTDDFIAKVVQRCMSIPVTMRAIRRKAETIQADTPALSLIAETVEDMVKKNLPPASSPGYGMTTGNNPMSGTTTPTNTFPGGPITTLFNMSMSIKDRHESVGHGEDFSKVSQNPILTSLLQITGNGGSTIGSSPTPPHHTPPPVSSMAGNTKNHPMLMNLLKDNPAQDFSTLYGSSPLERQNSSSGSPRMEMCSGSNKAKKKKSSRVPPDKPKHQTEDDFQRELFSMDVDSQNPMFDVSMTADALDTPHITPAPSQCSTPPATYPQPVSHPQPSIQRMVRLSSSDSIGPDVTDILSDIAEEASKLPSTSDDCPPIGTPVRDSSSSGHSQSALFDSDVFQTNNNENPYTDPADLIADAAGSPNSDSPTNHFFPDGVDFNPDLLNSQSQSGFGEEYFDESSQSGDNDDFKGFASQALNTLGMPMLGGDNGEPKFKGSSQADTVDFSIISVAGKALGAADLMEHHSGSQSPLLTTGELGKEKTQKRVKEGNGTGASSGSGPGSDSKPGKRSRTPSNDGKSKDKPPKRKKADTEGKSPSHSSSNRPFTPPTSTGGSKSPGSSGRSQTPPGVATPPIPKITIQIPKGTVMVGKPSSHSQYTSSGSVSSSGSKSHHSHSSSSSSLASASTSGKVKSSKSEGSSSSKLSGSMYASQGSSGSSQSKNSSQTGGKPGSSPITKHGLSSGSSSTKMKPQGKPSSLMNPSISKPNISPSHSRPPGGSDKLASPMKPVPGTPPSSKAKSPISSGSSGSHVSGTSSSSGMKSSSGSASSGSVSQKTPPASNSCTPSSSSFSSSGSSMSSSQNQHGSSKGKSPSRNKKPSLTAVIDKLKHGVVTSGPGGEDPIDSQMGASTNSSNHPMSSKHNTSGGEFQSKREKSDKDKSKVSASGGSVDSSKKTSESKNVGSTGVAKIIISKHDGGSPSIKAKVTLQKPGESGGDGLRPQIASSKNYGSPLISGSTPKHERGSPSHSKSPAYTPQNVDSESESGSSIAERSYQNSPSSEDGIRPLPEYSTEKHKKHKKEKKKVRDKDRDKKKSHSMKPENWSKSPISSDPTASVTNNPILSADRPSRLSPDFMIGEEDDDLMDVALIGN

binding result (MED1): binds
B1: MED4 (natural protein, Mus musculus (endogenous in CH12 cells), UniProt Q9CQA5 1-270, looked up)
chain: MAASSSGEKEKERMGGVSGMAGLGSTRERLLSALEDLEVLSRELIEMLAISRNQKLLQLEEENQVLELLIHRDGDFQELMKLALNQGKVHHEMQALEKEVEKRDSDIQQLQKQLKEAEQILATAVYQAKEKLKSIEKARKGAISSEEIIKYAHRISASNAVCAPLTWVPGDPRRPYPTDLEMRSGLLGQMNNPSTSGVNGHLPGDALAAGRLPDVLAPQYPWQSNDMSVNMLPPNHSSDFLLEPPGHNKENEDDVEVMSTDSSSSSSDSD

binding result (MED24): binds
binding result (MED23): binds
B2: MED16 (natural protein, Mus musculus (endogenous in CH12 cells), UniProt Q6PGF3 1-828, looked up)
chain: MDLAYVCEWEKWAKSTYCPSLPLACAWSCRNLIAFTTDLRNDDQDLTHMIHILDTEHPWEVHSVSSGHSEAITCLEWDQSGSRLLSADADGQIKCWSMADHLANSWESSVGSQVEGDPIVALSWLHNGVKLALHVEKSGASSFGEKFSRVKFSPSLTLFGGKPMEGWIAVTVSGLVTVSLLKPSGQVLTSTESLCRLRGRVALADIAFTGGGNIVVAAADGSSASPVKFYKVCVSVVSEKCRIDTEILPSLFMRCTTDPNRKDRFPAITHLKFLARDMSEQVLLCASSQTSSLVECWSLRKEGLPVNNIFQQISPVVGDKQPMILKWRILSATNDLDRVSAVALPKLPISLTNTDLKVASDTQFYPGLGLALAFQDGSVHMVHRLSLQTMAVFYSSAPRSLDEPALKRPRTTCPAVHFKAMQLSWTSLALVGIDNHGKLSMLRISPSLGHPLEPKLALQHLLFLLEYCMVTGYDWWDILLHVQPGMVQSLVERLHEEYTRQKPALQQVLSTRILAMKASLCKLSPCTVARVCDYHTKLFLMAITSTLKSLLRPHFLNTPDKSPGDRLAEICAKITDVDIDKVMINLKTEEFVLDMNTLQALQQLLQWVGDFVLYLLVSLPNQGSPLRPGHSFLRDGTSLGMLRELMVVIRIWGLLKPSCLPVYTATSDTQDSMSLLFRLLTKLWICCRDEGAASEPDEGLVDECCLLPSQLLVPNLDWLPASDGLVSRLQPKQPLRLRFGRAPTLPSSTSTLQLDGLTRAPGQPKIDHLRRLHLGAYPTEECKACTRCGCVTMLKSPNKTTAVTQWEQRWIKNCLCGGLWRRVPLSCS

binding result (MED27): binds
binding result (MED17): binds
B3: MED20 (natural protein, Mus musculus (endogenous in CH12 cells), UniProt Q9R0X0 1-212, looked up)
chain: MGVTCVSQMPVAEGKSLQQTVELLTKKLEMLGAEKQGTFCVDCETYHTAASTLGSQGQAGKLMYVMHNSEYPLSCFALFENGPCLIADTNFDVLMVKLKGFFQSAKASKIETRGTRYQYCDFLVKVGTVTMGPSARGISVEVEYGPCVVASDCWSLLLEFLQSFLGSHAPGAPTVFGNRHDAVYGPADTMIQYMELFNKIRKQQQVPVAGIR

Binder: B4
binding result (MED1): binds
